Source: patent publication US20160272683A1 (Novo Nordisk, published 2016)
One block for each binder: values may come before it. Numbered stars: 1 amine (or outer) side, 2 acyl side, 3 side chain; on linkers, the order of the positions; unused ones are H or OH. * marks the point of attachment. C20 diacid = O=C(O)CCCCCCCCCCCCCCCCCCC(=O)*; C18 diacid = O=C(O)CCCCCCCCCCCCCCCCC(=O)*; C16 diacid = O=C(O)CCCCCCCCCCCCCCC(=O)*; γGlu = O=C(O)[C@H](CCC(=O)[*:2])N[*:1]; AEEA = NCCOCCOCC(=O)O

Experiments:
Experiment in all cases: cell-based or functional assay
[1] = molecular target: T1, human amylin 3(a) receptor (human calcitonin receptor co-expressed with RAMP-3) (human, UniProt P30988 25-474; O60896 24-148, limits assumed)
T1 sequence (looked up) 1: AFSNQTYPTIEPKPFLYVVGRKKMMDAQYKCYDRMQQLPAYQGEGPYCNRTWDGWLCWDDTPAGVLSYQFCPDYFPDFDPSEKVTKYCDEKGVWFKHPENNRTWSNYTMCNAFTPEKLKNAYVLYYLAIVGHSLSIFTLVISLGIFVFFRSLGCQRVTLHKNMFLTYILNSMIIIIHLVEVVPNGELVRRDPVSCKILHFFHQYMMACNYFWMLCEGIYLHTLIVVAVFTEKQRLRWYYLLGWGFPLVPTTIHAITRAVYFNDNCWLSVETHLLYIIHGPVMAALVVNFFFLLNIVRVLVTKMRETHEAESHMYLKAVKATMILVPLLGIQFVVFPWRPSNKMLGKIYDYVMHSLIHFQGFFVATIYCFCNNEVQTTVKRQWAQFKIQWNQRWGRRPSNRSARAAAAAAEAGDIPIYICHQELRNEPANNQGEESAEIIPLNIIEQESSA
T1 sequence (looked up) 2: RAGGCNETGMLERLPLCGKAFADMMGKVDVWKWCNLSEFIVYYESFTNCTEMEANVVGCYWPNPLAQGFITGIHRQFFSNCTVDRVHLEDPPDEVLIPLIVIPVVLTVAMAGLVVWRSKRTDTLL

[2] = molecular target: T2, human calcitonin receptor (human, UniProt P30988 25-474)
T2 sequence (looked up): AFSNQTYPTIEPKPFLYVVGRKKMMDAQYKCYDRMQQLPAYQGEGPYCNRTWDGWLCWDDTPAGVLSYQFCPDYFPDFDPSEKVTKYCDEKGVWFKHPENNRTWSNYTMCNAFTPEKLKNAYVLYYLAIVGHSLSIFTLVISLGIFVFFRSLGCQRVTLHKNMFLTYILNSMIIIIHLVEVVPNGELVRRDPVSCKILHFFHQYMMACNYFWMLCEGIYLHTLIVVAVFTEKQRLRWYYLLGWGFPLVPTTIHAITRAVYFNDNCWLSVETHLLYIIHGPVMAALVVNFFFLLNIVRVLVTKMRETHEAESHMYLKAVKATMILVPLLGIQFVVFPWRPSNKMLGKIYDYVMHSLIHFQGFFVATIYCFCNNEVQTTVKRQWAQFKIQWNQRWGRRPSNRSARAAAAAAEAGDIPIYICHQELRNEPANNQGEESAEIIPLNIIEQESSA

[3] = molecular target: T3, human amylin 3(a) receptor (human calcitonin receptor co-expressed with RAMP-3) on BHK570/CRE-luc cells (human, UniProt P30988 25-474; O60896 24-148)
T3 sequence (looked up) 1: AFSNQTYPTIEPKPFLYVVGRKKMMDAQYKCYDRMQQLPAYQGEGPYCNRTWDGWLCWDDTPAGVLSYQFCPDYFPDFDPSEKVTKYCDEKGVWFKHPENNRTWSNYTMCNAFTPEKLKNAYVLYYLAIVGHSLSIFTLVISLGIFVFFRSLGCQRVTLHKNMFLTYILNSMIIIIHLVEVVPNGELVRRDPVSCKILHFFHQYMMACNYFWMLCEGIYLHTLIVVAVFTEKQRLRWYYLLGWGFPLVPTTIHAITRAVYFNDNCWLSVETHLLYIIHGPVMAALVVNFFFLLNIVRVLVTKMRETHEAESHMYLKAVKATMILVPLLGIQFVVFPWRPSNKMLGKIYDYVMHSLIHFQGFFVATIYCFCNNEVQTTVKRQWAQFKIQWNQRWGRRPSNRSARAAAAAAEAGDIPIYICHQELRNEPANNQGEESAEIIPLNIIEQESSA
T3 sequence (looked up) 2: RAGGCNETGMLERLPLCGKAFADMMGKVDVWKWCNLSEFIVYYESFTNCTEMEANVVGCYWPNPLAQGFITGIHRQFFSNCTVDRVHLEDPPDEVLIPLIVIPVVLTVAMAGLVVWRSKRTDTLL

[4] = molecular target: T4, human calcitonin receptor on BHK570/CRE-luc cells (human, UniProt P30988 25-474)
T4 sequence (looked up): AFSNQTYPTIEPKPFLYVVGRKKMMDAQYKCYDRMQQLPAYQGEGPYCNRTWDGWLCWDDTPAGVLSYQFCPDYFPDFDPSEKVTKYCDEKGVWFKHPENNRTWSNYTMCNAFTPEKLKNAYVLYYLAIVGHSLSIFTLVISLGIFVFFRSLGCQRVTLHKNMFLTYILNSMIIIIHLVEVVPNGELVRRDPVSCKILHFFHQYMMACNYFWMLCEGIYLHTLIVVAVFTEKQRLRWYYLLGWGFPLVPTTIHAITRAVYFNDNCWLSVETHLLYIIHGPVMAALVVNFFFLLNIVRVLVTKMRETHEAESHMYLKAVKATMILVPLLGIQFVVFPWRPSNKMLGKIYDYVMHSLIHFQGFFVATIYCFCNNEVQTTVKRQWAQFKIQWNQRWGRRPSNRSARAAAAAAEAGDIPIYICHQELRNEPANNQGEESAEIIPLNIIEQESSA

Binder: {C20 diacid-γGlu}-ASELSTAALGRLSAELHELATLPRTETGSGSP-NH2 [[N-terminal(C20 diacid-gGlu), des1, 30S, 31G]mimylin]
- hAmylin-R funct. EC50 (pM) [1]: 13 pM
- hCTR funct. EC50 (pM) [2]: 14 pM

Binder: {C20 diacid-γGlu-AEEA}-ASELSTAALGRLSAELHELATLPRTETGSGSP-NH2 [[N-terminal(C20 diacid-gGlu-OEG), des1, 30S, 31G]mimylin]
- hAmylin-R funct. EC50 (pM) [1]: 27 pM
- hCTR funct. EC50 (pM) [2]: 18 pM

B1: [N-terminal(C18 diacid-gGlu), des1, 30S]mimylin (peptide)
peptide: {C18 diacid-γGlu}-ASELSTAALGRLSAELHELATLPRTETGSESP-NH2
SMILES: CC(C)C[C@H](NC(=O)[C@H](C)NC(=O)[C@H](C)NC(=O)[C@@H](NC(=O)[C@H](CO)NC(=O)[C@H](CC(C)C)NC(=O)[C@H](CCC(=O)O)NC(=O)[C@H](CO)NC(=O)[C@H](C)NC(=O)CC[C@H](NC(=O)CCCCCCCCCCCCCCCCC(=O)O)C(=O)O)[C@@H](C)O)C(=O)NCC(=O)N[C@@H](CCCNC(=N)N)C(=O)N[C@@H](CC(C)C)C(=O)N[C@@H](CO)C(=O)N[C@@H](C)C(=O)N[C@@H](CCC(=O)O)C(=O)N[C@@H](CC(C)C)C(=O)N[C@@H](Cc1c[nH]cn1)C(=O)N[C@@H](CCC(=O)O)C(=O)N[C@@H](CC(C)C)C(=O)N[C@@H](C)C(=O)N[C@H](C(=O)N[C@@H](CC(C)C)C(=O)N1CCC[C@H]1C(=O)N[C@@H](CCCNC(=N)N)C(=O)N[C@H](C(=O)N[C@@H](CCC(=O)O)C(=O)N[C@H](C(=O)NCC(=O)N[C@@H](CO)C(=O)N[C@@H](CCC(=O)O)C(=O)N[C@@H](CO)C(=O)N1CCC[C@H]1C(N)=O)[C@@H](C)O)[C@@H](C)O)[C@@H](C)O
- hAmylin-R funct. EC50 (pM), tested with HSA [3]: 26 pM
- hCTR funct. EC50 (pM), tested with HSA [4]: 9 pM

B2: [N-terminal(C18 diacid), 9V, 12K, 25K]mimylin (peptide)
peptide: {C18 diacid}-EASELSTAVLGKLSAELHELATLPKTETGPESP-NH2
SMILES: CC(C)C[C@H](NC(=O)[C@H](CCC(=O)O)NC(=O)[C@H](Cc1c[nH]cn1)NC(=O)[C@H](CC(C)C)NC(=O)[C@H](CCC(=O)O)NC(=O)[C@H](C)NC(=O)[C@H](CO)NC(=O)[C@H](CC(C)C)NC(=O)[C@H](CCCCN)NC(=O)CNC(=O)[C@H](CC(C)C)NC(=O)[C@@H](NC(=O)[C@H](C)NC(=O)[C@@H](NC(=O)[C@H](CO)NC(=O)[C@H](CC(C)C)NC(=O)[C@H](CCC(=O)O)NC(=O)[C@H](CO)NC(=O)[C@H](C)NC(=O)[C@H](CCC(=O)O)NC(=O)CCCCCCCCCCCCCCCCC(=O)O)[C@@H](C)O)C(C)C)C(=O)N[C@@H](C)C(=O)N[C@H](C(=O)N[C@@H](CC(C)C)C(=O)N1CCC[C@H]1C(=O)N[C@@H](CCCCN)C(=O)N[C@H](C(=O)N[C@@H](CCC(=O)O)C(=O)N[C@H](C(=O)NCC(=O)N1CCC[C@H]1C(=O)N[C@@H](CCC(=O)O)C(=O)N[C@@H](CO)C(=O)N1CCC[C@H]1C(N)=O)[C@@H](C)O)[C@@H](C)O)[C@@H](C)O
- hAmylin-R funct. EC50 (pM) [1]: 16 pM
- hCTR funct. EC50 (pM) [2]: 8 pM

B3: [N-terminal(C18 diacid), 5I, 9I, 10I]mimylin (peptide)
peptide: {C18 diacid}-EASEISTAIIGRLSAELHELATLPRTETGPESP-NH2
SMILES: CC[C@H](C)[C@H](NC(=O)[C@H](C)NC(=O)[C@@H](NC(=O)[C@H](CO)NC(=O)[C@@H](NC(=O)[C@H](CCC(=O)O)NC(=O)[C@H](CO)NC(=O)[C@H](C)NC(=O)[C@H](CCC(=O)O)NC(=O)CCCCCCCCCCCCCCCCC(=O)O)[C@@H](C)CC)[C@@H](C)O)C(=O)N[C@H](C(=O)NCC(=O)N[C@@H](CCCNC(=N)N)C(=O)N[C@@H](CC(C)C)C(=O)N[C@@H](CO)C(=O)N[C@@H](C)C(=O)N[C@@H](CCC(=O)O)C(=O)N[C@@H](CC(C)C)C(=O)N[C@@H](Cc1c[nH]cn1)C(=O)N[C@@H](CCC(=O)O)C(=O)N[C@@H](CC(C)C)C(=O)N[C@@H](C)C(=O)N[C@H](C(=O)N[C@@H](CC(C)C)C(=O)N1CCC[C@H]1C(=O)N[C@@H](CCCNC(=N)N)C(=O)N[C@H](C(=O)N[C@@H](CCC(=O)O)C(=O)N[C@H](C(=O)NCC(=O)N1CCC[C@H]1C(=O)N[C@@H](CCC(=O)O)C(=O)N[C@@H](CO)C(=O)N1CCC[C@H]1C(N)=O)[C@@H](C)O)[C@@H](C)O)[C@@H](C)O)[C@@H](C)CC
- hAmylin-R funct. EC50 (pM) [1]: 10 pM
- hCTR funct. EC50 (pM) [2]: 5 pM

The remaining lines, values ahead:

- hAmylin-R funct. EC50 (pM) [1]: 18 pM
- hCTR funct. EC50 (pM) [2]: 15 pM
Binder: {C16 diacid-γGlu}-ASELSTAALGRLSAELHELATLPRTETGSGSP-NH2 [[N-terminal(C16 diacid-gGlu), des1, 30S, 31G]mimylin]

- hAmylin-R funct. EC50 (pM) [1]: 17 pM
- hCTR funct. EC50 (pM) [2]: 12 pM
Binder: {C20 diacid-γGlu-AEEA-AEEA}-ASELSTAALGRLSAELHELATLPRTETGSGSP-NH2 [[N-terminal(C20 diacid-gGlu-2xOEG), des1, 30S, 31G]mimylin]

- hAmylin-R funct. EC50 (pM) [1]: 18 pM
- hCTR funct. EC50 (pM) [2]: 17 pM
Binder: {C18 diacid}-ASELSTAALGRLSAELHELATLPRTETGSGSP-NH2 [[N-terminal(C18 diacid), des1, 30S, 31G]mimylin]
